Assays:
[1] = target: F1FO-ATP synthase (complex V) (P. falciparum); test: native gel or EMSA; high molecular mass (HMM) complexome profiles: GCT3D experiment repeated on a 3-16% BN gel, only the top part of the gel (Mr app. >1000 kDa) analysed; gametocytes, digitonin
[2] = target: F1FO-ATP synthase (complex V) (P. falciparum); test: native gel or EMSA; complexome profiling after method 3 only (nitrogen cavitation without saponin, larger amounts of parasites; samples ABS3D and GCT3D), digitonin, BN-PAGE 4-16%, stacking gel also analysed
[3] = target: cytochrome bc1 complex (CIII) (P. falciparum) (UniProt Q7HP03); test: native gel or EMSA; complexome profiling: mitochondria-enriched fractions of mixed ABS parasites or stage V gametocytes (enrichment methods 1-3), solubilised with digitonin or DDM, BN-PAGE on 4-16% gradient gels, gel slices analysed by LC-MS/MS; comigration of iBAQ migration profiles

Row | Substance | stoichiometry N [1] | stoichiometry N [2] | stoichiometry N [3]
1 | F1FO-ATP synthase (complex V) | 2 | 2 | 
2 | cytochrome bc1 complex (CIII), Q7HP03 1-376; Q8I6U9 1-394; Q8IL75 1-355; Q8ILJ5 1-88; Q8IJS2 1-192; Q9NLB3 1-137; C0H4H6 1-96; Q8I2I2 1-484; Q8I3N3 1-534; Q8IBM6 1-79; A0A5K1K9E9 1-163; Q8IB13 1-54 |  |  | 2

From article PMC8217502
